Results reported in the DeepSol protein solubility set.

experiment: soluble on expression in E. coli; label from the status in PepcDB or PDB records

Sequence | soluble on expression in E. coli
MAHHHHHHMQRDVYASLIKKRHKQMVPLLIHQVSGDITRENIFDEVFHGYKLRRIVLMTHMAATPATLPRLPRDIIVSDFDKLKAIHQPHFHYKLLPLLCTDFEAFSALQGICASANSPFTIEDRKDPQGLTHRLSNGCSERQALCEFFDPHIAPAEKLVPVFSRKLPISAVVFDGLLLKQNYPKVAALLTVHEAASEKSIIERAIMRDFFVSPLYTKVSGNSDVAQSLRLVHHCTHFMALKRAVGSDAPSRQSLMRLAAEKKLFMYEKIGDEYQFVH | soluble
MAHHHHHHMRGEHELVIPGEQRRDWCSTDACENRLCRKKFSLLVSKQHCQWCGRIFCDNCAPCTATYGGRRLRRCNSCKFPAVFRSLRNLRTGKRDGSVARLIMSFLDSRSINALMHSCYTSLSEFNVGDYVYYESITDRFPTFFEGAMIGKGGFGSVYKCEDRSYPCRRRVALKVITKASVVTYRSWKKIVTELEIMQDVDHHNVAKLLEVLQTPHHLVIVMEAGDGGSLMQAWRLAKEYKYDVEVLVANVVLQVAEGLDYLYHKKGIVHRDIKLENIVLSHDFKRVMIIDFGLAEYVKQCETQLFVPCGTAGYTSPENIRAVVERRRVYEALGETMHLADMYSLGVVAYVLLCGHMPVATRCFSSLYQNMLKGIRCVGPHWANVSDDAKSLVESLVKTNSFERATVAVIREHPFIQAKAPLIVEIVQRHMHKQTETERREVKEWVYVEPLSDHWDMIEVETVSDEENRGLALRKGSSTFGRVGFMNRLKSVVWD | not soluble
MAHHHHHHMRKVKKNKQVRNMLKSLTERVDTDDGENEYARLTQTPVVKMNLSKVKLKTSLQSVLVEPYTEKVKDFVAKTNYEISMEKTLLDEIKNANQNMDRIGDVLSARGGKQRKTRDNHHIMGRYFHYLRDKNEDFGLSFFPVYKTFKSNFSHFSDNLNSSLYPHELLEMGSMSSGNFLKNSSKRISFPERGDS | not soluble
MAHHHHHHMRLIESRQMHEWDNAADSSLDVDHPEDAPFGQGPERQQQRDGKSNLGDQSDYGEEARTEATWLWRFGFPRTEDEKAYVASHLWSKGLRRRVAQLTDVRRRGRPGEFVIGVPEGLQHLREQRERLERERFGGVKVFPPQNA | not soluble
MAHHHHHHMRRSSSCLYKIPKNTGVAPRFDTWNEKYEPWEHLKRMGRLAGTGFYIPPEWYNHFRMFPPINHNFQQEKTLNPHNVSEPTQDDTDYLSVERIALRDELARKSRLLASEGMRYYNVFWIRKPLDRMERHYYELERKGVAHSVAIKRVLQMFYDELTVKKRVAAIQAEEAKLSGKYISMREATVLMGVLTQLQKEQLTPHQVTLLAKEQREKAQAGEAFAATVERSTETVADAAKDAAEGDEVMSADSLAELLSTEADLDDSSPSISYKVTIHETEHDSVKQLQELALDHTGKSDWYTGASPVLHMEEAMPAKRTPASKKTES | not soluble
MAHHHHHHMRRTAFSLMIVPPESHRYAKATFHEGVHRQAPGDSTPWRDVASPLNRFKMWWLAPAAKGTMTAAWCMTIVMGAYCFSIQQDAKGTYLLNNVLLRTLHEEAMRADANQERANELQEYLKQRLEKLEAGGKAASRNMGGDAVKEGLINHELEISRERVRSDSIHQRNQQLVDELLKVRQELAVTRKKHSAALSEIDKLQKLLKACT | not soluble
MAHHHHHHMRSSQFLLSGLRRTAILMTISDEYIPRAFPVKSTTGLAGIAVEPLWKPKLLAAASELQAFLTSSDIPPESTYYNIAMTLVKRVNHGIKECQDDWCTLEKRYFWGWPVEYILQVTWRELETAQKWNEWRFWELDPEQVKKVAREDQNIGREGLGYNSPWEQVVREDFDKRKKALTQEEMAELKRMDTERMARETAAYKERKDRIRDDLEKARGDMLKKFLNKRFAVDKDLQRMQPGKRYSGKTADDLIAELKSSVENNPQKSDLGK | not soluble
MAHHHHHHMRVSPNSLSEAASQLEQDRERDFFRLLYIVDRARRFLSIPVGNVDWRLTCDCLDDMNHRYADTGFLLGFTGGYVLRNRAGRTLLSRFWFSMYLGLVFYDWELRRTTRAPALEYWNSICTVDTEVGRIARVLHTPARFYEAAPMSTAFSGGPPPLPRGSSSSPSPAPHGASVRDWLWRYVSDTMSSVLLMTLCSHLFEGSSWRHRTSDNVEVTALVINSRFFHWKVFESCQVQRNETTEYNISLKWFPSFAASDSLRRSFQCRELILERSTLGGRLWYRTHFSLLRCLGLDSQ | not soluble
MAHHHHHHMRVYYSNLVKDKRKCLNFIKVEKKYGGTSLLTKIGQAFNQEHLRNMKTKLDDVKKSSSPFFGTSMEGSNNIFKNFIDIFRKNNIIKDKLKINDSEKKEKEFYMFYVNSLMKYEGIFTYGKFQAFLKDLCDYFNIFSIKYKYKKKMNPQFEKLKKQYEVLNSFLPYELDNDDYKIFTQESKKYIAQAANVDIKFIDELLLFHDTLKTDRTWFYRRKVLKRNIPESFEAREMEAPYDRPVPKTYNYNIKEHSLEYDEFMKKHGRKLKFKQWNSKQHPWFRKNTSGRNRWATRPYTKQFPYLYYSRVPSHMYLSKNKPKISH | not soluble
MAHHHHHHMSAAVQTLATVMATDMNYYAGDPTVLAADAASSRVEQILQSSRSDQLTARVAIHAQLREAFKNVDVQQRFKPFLSDGENIQMYVQDAKARARFFSQKQQELQHDILQSEEQRQLKEAHGELAAWERENAVLLRHQMFMTYMPSQALLLESAATVALYRQYATLEEGQYTSDSSDGEVPMMLKKMGGKTYFTQSEQPFEVDTHNKMFSQQVLQNKRVEYEQMREKAAQLRQALEECPTVKRLEAFVELRNDIFVAYGIDRLASLCSRKDKEMGNPNEGGVDASLHGLPADDEYVSSSRVAQYSLPKIVDAAYKNYLNILSMDDWDAMMKHTGSNARAVMEKIKPMKDKETFRYWFLSCITADVPQMGPNKIVGQKATTLEDYKKFWAPQKSNYVPSLTSNRSIFGSKVADRRGLPHFLILSPVTYRYRENNDPNAVKTGTMDLMVYDATNEKVLLMLTNSSDERRPRAAFLKAQEERYRFAAVVRSAITYENQYHGFECEGTVAEYFFDAQEGPEENYYCIMAPHRVYSKQPNKVQVPMKALRPFTSCPPRYFVLGSNWGVSAGTRRNPYPASYAHVELNENAVGLSNVIPDGFISSKVLPQLLSHAEGVQKLEEEMKRQQRAELERPQLSPRALTRASRGGAATPRPSTAPPSPENNAADILADENMRGPGEEEDPLSPLVPNEVLRPVRDQLLKQRRSWQSPAYIAFRARDSDLRRLPAVKDGHLRTPLNVFNDLMREKHGEDAPPASAPSSARRSNGPPSSRTASVACT | not soluble
MAHHHHHHMSAKLTVAVPRLASTVLLLARNPKHAISEQRPATGDNAARENDIHVLIMKRHGKARFMPGVYVFPGGGIEGSDYAAATHYLAEHYNLHLQDAADKKVTTQDFIESCGQPSAEEAELEAWACRVGALRELAEEAACVLRRDGCIFSEAEWIKWQKSRSDAGATGGASTDPVSSRPATLLPIYDLPAVSSLRPVARWVSPRQSRYRYDTYFYAALVNSALVSAEAHKAAHAPCSTQASSCDEANAGMGVRCIPPQELPLLEQASEVSELLWISPLEALRRHEDPSDVFSLAPPTYLLLHALSLQPSFASLAAAWAAAPASPEDPAAKPLGDLPHSSVLPCVEPLSTMTEDGRRIMKFVLPARYFHETGWSVAEGEYLFPGECCAGHRHFIHVFVGRAGATTGDGATADKPCTILH | not soluble
MAHHHHHHMSGAFGCGSYRSVVAGTQNVPRRMTFYPSAYELIQLHKAHREVIRHFYVRDKIFDNKFPGNALANGLFKFVPNRRENYHMRELMESIRRRSIWMHRIKQQREINAKVVENMEVKYGKKAAASMLCFTTPDSNAYFAPHRYQDVANSWPNYWQHPSVNHVVPKPRWRRHRELGGITRVEDPFAVQASDY | not soluble
MAHHHHHHMSGVVIKKPNLKRLLAGQREELASFQPPVHPIPEYLGSPLPYLSNPYHIRGTLMAVEQEPEPNHEADGGKQLMADIMNERARICLEVEKTLALTCRVLDKAAQNDGELTELARESLARLTVMGEDLSNRMITSRE | not soluble
MAHHHHHHMSKLIKLDCGVQHYAWGKEAAESYVAKMKGEGNKEGKYAELWVGTHPNCPSKTFSGQNLDDFLKNDNNMSRFVHPKQQADPRFRDTVPFLLKLLSVQTALSIQAHPNKQLAEKLHRENPEKYKDPNHKPELVVALTPFEALCCFRPLKDILEFLESASPLKTLLGPAADVLPGEVEDSEAIKHMMDIVYNTDAKKHAEALQEHAEELRSRGGEMTKEDSVFLRVLYQYPDDMGCWMVYFLNYVQLAPGEGLFLADSEPHAYLFGDSVEIMACSDNVVRAGLTPKWKDVPTLLRMLRYGTDGLERAKFERYRAPEGSEWELQHYSPPREFQDFSLYRIEHRVERQGQTHIKLPTVGLGFCVEGCGIVNGERVRLGECFLVPYGDLKIEAFGDFQIFVASMNYSLHSASHM | soluble
MAHHHHHHMSNAEEETVKKKKKYRKDKPWDNENIDHWKVEKFTQEDNKHHFLEESSFKVLFPKYREKYLQQFSSDIKNVLNKHFIKFEIDLIEGYMCVKTTKKTFDPYIIIKSRDMISLLSRSVPFVHAKRVLEDETYCDIIKISGYVRNKNKFIKRRQRLLGSNATTLKALEILTNCYICIHGKTVSVIGHFKSLKVVRRIIIDCMKNIHPVYHIKELIAKRELEKNEEFKNENWEKFLPNFKKRNVQRKKIKEKLDKKKKKNKSVFPPDQLPRKIDIQMETGEYFLNNQKNKKKDKTQDKQQKGND | not soluble
MAHHHHHHMSNNYFNNEAPPDNINNLSYDEGLEQQYNFTDNEEEIFSSFFSDNKKNICLPKSLREHMLIEYTAMFVNIEGDIAEFYLKLDNDVLIKFPFLHVDHPLHRYYEFVKLNTKKRLITKYPKIIPSPLKDLFQYVTDLENTKVINNEIKSKKLKEKQIEHVKNKKGNKQILMKQKENQSYSSLFMRYMQSDDEKSNSTVENDKNEEHNEDTLSNESMMEIDNIIKKLKDKKDKSSMQTARFYLQCIEKLKFLQYGTKQYKYFVQKLLYDQNRLNVNNSDIKVRQKIHSTDFLEFLLKTDEHKKSLDNVINEDIYEQQNSHETETERDDLQTMQDYRR | not soluble
MAHHHHHHMSQNKLYKTNYGYNNPILLNKNERNIKTYVNQETMTNKLLTTYNRSPLQSNYEHNIPKIIHSSTIKKQGVINENNGDKIYKPNYRDMNNLYNSKYVFSKNTPEYINGRKQMITVYDNIKNEERNKSINYYKNKNMIKIPSSYNSNNGNKIKSNNVKDGVLQLEKGSIQNVAKNMNTFHNKSNENGKFIKKLNNSNYKEVTSNVDEIRLLNKSLSAKISSSIKTNYEKSNILDHKKNTNVKVSKISIENKKYNIRKKENMKWAPKYNNNNNNNNNKDHKNMIIESVKVVKNPKEINKKKTKIVQNKYKNPLPSYICLHFHDNSLNLNNGLKIFNDMITVDKNQRMKKWNGYEWDVIEKDFHFLIKARYDNKGNIWCINKSYEVLKIMRNKLKNFGHLGKEEIIDIGFDKKNILWCINRKGQLLKWVKTKWDNIQYKGFHKLICFSFDKKGELWAINLKKELAIWNKKNKCWDEKYIKDNLKISCIDFDGDGKLWVVSNSGALLTYSKDQWINFGLVCLDELICISFKKLQE | not soluble
MAHHHHHHMSSAHKPTTQEAINFFKQYREKFQRSSSGGNSPSQNSVNASPQQNIVTQVQQVDVVPDLTTRSIIPMNRRNGTTTTRLDLLRKSPTNCSPCLVQEVEIKPLLPPLPFASVPKVTLVLDVDETLVHSTFQPSSDVVYDKVLLVPSEGKTYTVSVKYRPYLEDFLRFVSRRFEVVIFTASMRAYCDKLMDEIDPHGILGNLRLFREHCTFSERSYVKDLHRLGRDLRRVVILDNSPAAYSFQQRNAIPIKTWINDPKDRELFLLLPLLDRLAMCDSVYSELDPYNARGCDYL | not soluble
